Experiment: yeast display, Sf9 membrane polyspecificity reagent, FACS + sequencing; frameworks hold sequencing errors
How it was run: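 A synthetic nanobody library was expressed on Saccharomyces cerevisiae BJ5465 by galactose induction for 36–48 hours. The library was stained for 1 hour at 4 °C with 10% biotinylated, detergent-solubilized Sf9 membrane reagent and enriched with streptavidin microbeads before FACS. Low and high (top ~1%) gates were set on anti-HA fluorescence for expression and streptavidin fluorescence for reagent binding, and each polyreactivity label reflects the gate of origin.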

Sequence: QVQLVESGGGLVQAVGSLLLSCAASGSIFRVYAMGWSRQAPGKERELVAAISVSGSSTYYADSVKGRFTISRDNAKNTVYFQMNCLIPEDTAVYYCATKQRRGYWGYITAYARYYWGQGTQVTVSS
- polyreactivity (PSR sort gate): high polyreactivity

Sequence: QVQLVESGGGLVQAVGSLRLICDASGRIFYGYAMGWYRQAPGTERELVAANTYIGGTYYADSVKGRFTISRDNAKNTVDFLMNSVKPEDTSVYYWATEPFYNYGYFTYPYWYDYWGQGSQVTVSS
- polyreactivity (PSR sort gate): low polyreactivity

Sequence: QVQLVESGGGLVQAVGSLRLSCAASGFIFSYYAMGWYRQAPGKERELVAAISRSGSITYYADSVKGRFTISRDNAKNTVYLQMNRLKPEDTAVYYCAARYWRRGSSGRLNYWGQGTQVTVSS
- polyreactivity (PSR sort gate): high polyreactivity

Sequence: QVQLVESGGGLVQAVGSLRLSCAASGFIFYRNVMGWYREAPGKERELVAAISGSGGRTYYADSVKGRFTISRDNAKNTVYLQLNSLKPEDTAVYDCAADASLEGDYWGQGTQVTVSS
- polyreactivity (PSR sort gate): high polyreactivity

Sequence: QVQLVESGGGLVQAVGSLRLSCAASGFILTRYAMGWYRQAPGKERELVAGIRLRGGSTYYADSVKGRFTISRDNAKNTVYLQMNSLKPEDTAVYYCAARYYYQYDYWGQGTQVTVSS
- polyreactivity (PSR sort gate): high polyreactivity

Sequence: QVQLVESGGGLVQAVGSLRLSCAASGITFKWYAMGSYRHAPGKERELVAAISWSTGSTYYADSVKGRFTISRDNAKNTVYLQMNSLKPEDTAVYYCAARVKRPQTGYDRRYGYWGQGTQVTVSS
- polyreactivity (PSR sort gate): high polyreactivity

Sequence: QVQLVESGGGLVQAVGSLRLSCAASGITFNLYAMGWYRQAPGKEREFVAGITASGSSTYDADSVKGRFTISRDNAKNTVYLQMNSLKPEDTAVYYCAARWHIYYFSYVTSYAYGYWGQGTQVTVSS
- polyreactivity (PSR sort gate): high polyreactivity

Sequence: QVQLVESGGGLVQAVGSLRLSCAASGLIFDANAMGWYRQAPGKERELVAAISNGDSTYYADSVKGRLTISRDNAKNTVYLQMNSLKPEDTAVYYCNARIIYRKWLFRSGTFNYWGQGTQVTVSS
- polyreactivity (PSR sort gate): low polyreactivity

Sequence: QVQLVESGGGLVQAVGSLRLSCAASGSIFDVNAMGWYRQAPGKERELVAAISQRGTRTYYADSVKGRFTISRDNAKNTVYLQMNSLKPEDTAVYYCNRGGWRQYDSWGQGTQVTVSS
- polyreactivity (PSR sort gate): high polyreactivity

Sequence: QVQLVESGGGLVQAVGSLRLSCAASGSISVYYAMGWYRQAPGKEMELVAAISRSGGRTYYADSVKGRFTISRDNAKNTVYLQMNSLKPEDTAVYYCAAGYSSLRRFGVYYWGQGTQVTVSS
- polyreactivity (PSR sort gate): high polyreactivity

Sequence: QVQLVESGGGLVQAVGSLRLSCAASGSTFDHYAMGWYRQAPGKERELVAAISYSGSTTDYADSVKGRFTISRDNAMNTVYLQMISLKPEDTAVYYCAASGDVIQSPMDYWGQGTQVTVSS
- polyreactivity (PSR sort gate): low polyreactivity

Sequence: QVQLVESGGGLVQAVGSLRLSCAASGSTFFWYAMGWYRQAPGKERELVAAISKTGGSTYYADSVKGRFTISRDNAKNTVYLQMNSLKPEDTAVYYCAKPLSSFSRTSSVWPWYDYWGQGTQVTVSS
- polyreactivity (PSR sort gate): low polyreactivity

Sequence: QVQLVESGGGLVQAVGSLRLSCAASGSTLSFNAMGWYRQAPGKERELVAGITYSGGSTYYADSVKGRFTISRDNAKNTVYLQMNSLKPEDTAVYYCNKASGVYYGHLDYWGQGTQVTVSS
- polyreactivity (PSR sort gate): low polyreactivity

Sequence: QVQLVESGGGLVQAVGSLRLSCAASGYFFSSNAMGWYSQSPGKERELVAAITASGGGTYYADSVKGRFTISRDNAQNTVYIQMKSLKPEDTAVYYCAADFNDHYYWYGQDFDYWGQGTQVTVSS
- polyreactivity (PSR sort gate): low polyreactivity

Sequence: QVQLVESGGGLVQAVGSLRLSCAAYGSTFYVNAMGWYRQAPGKEREFVAAITWNSGSTYYADSVKGRFTISRDNAKNTVYLQMNSLKPEDTAVYYCAAVLYVRVYGYDYWGQGTQVTVSS
- polyreactivity (PSR sort gate): low polyreactivity

Sequence: QVQLVESGGGLVQAVGSLRLSCASSGNTFGPNAMGWYRQAPGKERELVAAIRWRGGSTYYADSVKGRFTISRDYAKNTVYLQMNSLKPVDNAVYYCAAGIHSPTYRTGTTYVDYDYWGQGTQVTVSS
- polyreactivity (PSR sort gate): high polyreactivity

Sequence: QVQLVESGGGLVQAVGSLRLSCDASGSTFYPYAIGWYRQAPAKESELVARITRGVGSTYYADSVKGRFTISRDNAKNTVYLQMNSLIPEDTAVYYCNRVEYFTVWGYDYWGQGTQVTVSS
- polyreactivity (PSR sort gate): low polyreactivity

Sequence: QVQLVESGGGLVQAVGSLRLSSAASRSTFGLNAMGWYRQAPGKESELVAAITFSGGSTYYADSVKGRFTISRDNANNTVYLQKNSLKPEDTAVYYCAARFSLEGGYYWGQGTQVTVSS
- polyreactivity (PSR sort gate): low polyreactivity

Sequence: QVQLVESGGGLVQAVRSRRLSSAASGSIFYFYPMGWYRQAPGKDREFVAAISSGGSTYYSDSVKGRFTNSRDNAKYTVYLQMNSLKPEDTAVYYCAAVSLYYRYDFWGQGTQVTVSS
- polyreactivity (PSR sort gate): low polyreactivity

Sequence: QVQLVESGGGLVQDGGSLPLSCAASGHIFIYYTMGWYRQAPGKERELVAGITIGGSTNYADSVKGRFTISRDNAQNTVYLQMNSLKPEDTAVYYCSTTWYLVASWYVAIFDYWGQGTQVTVSS
- polyreactivity (PSR sort gate): low polyreactivity

Sequence: QVQLVESGGGLVQEGASLRLSCAASGFIFLQYAMGWYRQAPGKERELVAAITSGGGTNYADSVKGRFTISRDNAKNTVYLQMNSLKPEDTAVYYCAARTWPWVLGATQDDYWGQGTQVTVSS
- polyreactivity (PSR sort gate): low polyreactivity

Sequence: QVQLVESGGGLVQEGGSLRISCASSGFIFASYAMAWYIQAPGKERELVAAITQSGGITYYADSVKERFTISRDNAKYTVYLQMNSLKPEDTAVFYCNTPLLKRTTRCRERNYWGQGTQVTVSS
- polyreactivity (PSR sort gate): low polyreactivity

Sequence: QVQLVESGGGLVQEGGSLRLICAASGFIFRYYAMGWYRQAPGKERELVAAISRSGGSTSYADSVKGRFTISRDNAKITGDFQMNSLKPEDSAVYYCAKYVAFHYKQYDFNWGQGTQVYVSS
- polyreactivity (PSR sort gate): high polyreactivity

Sequence: QVQLVESGGGLVQEGGSLRLICAASGRTFYPNAMGWYRQAPGKERELVADITYSGASTYYADSVKGRFTISRDYAKNTVYLQMNSLKPEDTAVYYCNADDSCVLVYVPYDYWGQGTQVTVSS
- polyreactivity (PSR sort gate): low polyreactivity

Sequence: QVQLVESGGGLVQEGGSLRLICAASGSIFEVNAMGWYRQAPGKERELAATITYSGGSTYYADSVKGRFTISRDNAKNTVYFQMNSLKPEDTAVYYCATDYVDWELYIYDYWGQGTQVTVSS
- polyreactivity (PSR sort gate): low polyreactivity

Sequence: QVQLVESGGGLVQEGGSLRLICSASGSTFRANAMGWYRQAPGKERELVAAITSSGGSTYYADSVKGRFTISRDNAKNTVYLQMNSLKPEDTAVYYCAKENAPSRLTYGYWGQGTQVTVSS
- polyreactivity (PSR sort gate): low polyreactivity

Sequence: QVQLVESGGGLVQEGGSLRLSCAASASTLYKYAMGWYRQAPGKERELVAAISWSGSSTYYADSVKGRFTISRDNAKNTVYLQMNSLKPEDTAVYYCNARWQEPLKYDYWGQGTQVTVSS
- polyreactivity (PSR sort gate): low polyreactivity

Sequence: QVQLVESGGGLVQEGGSLRLSCAASGFIFGWYAMGWYRQAPGKERELVATISSSGGSTYYADSVKGRFTISRDNAKNTVYLQMNSLKPEDTAVYYCAARPRRYYSAQDMDYWGQGTQVTVSS
- polyreactivity (PSR sort gate): high polyreactivity

Sequence: QVQLVESGGGLVQEGGSLRLSCAASGFIFGWYGMGWYRQPPGKDSELFAAITWSGVRTYYADSVKGRFTISRDNAKNTVYLQMISLKPEDTAVYYCARAGGYVGRGYKDQDGRGDYWGQGTQVTVSS
- polyreactivity (PSR sort gate): high polyreactivity

Sequence: QVQLVESGGGLVQEGGSLRLSCAASGFTFRYYAMGWYRQAPGKERELVAAIRWNGGSTYYADSVKGRFTISRDNAKNTVYLQMNRLKPEDTAVYYCNAAYSYGRYEYVYWGQGTQVTVSS
- polyreactivity (PSR sort gate): high polyreactivity

Sequence: QVQLVESGGGLVQEGGSLRLSCAASGFTFVGYAMGWYRQAPGKERELLASIPWGGDRTYYADTVKGRFTISRDNAKNTDYLQMNSLKPEDTAVYYCNAQYEIWRVTFSPYDRWGYDYWGQGTQVTVSS
- polyreactivity (PSR sort gate): low polyreactivity

Sequence: QVQLVESGGGLVQEGGSLRLSCAASGIIFSIYAMGWYRQAPGKERELVAVISRSSGSTYYADSVKGRFTISRDNAKNTVYLQMNSLIPEDTSVYFCAARKNRAYGYWGQGTEVTVSS
- polyreactivity (PSR sort gate): high polyreactivity

Sequence: QVQLVESGGGLVQEGGSLRLSCAASGITFGRYAMGWYRQAPGKERELVAAISWSGGSTYYADSVKGRFTISRDNAKITVYLQMNSLKPEDTAVYSCNARGFPGKFGYWGQGTQVTVSS
- polyreactivity (PSR sort gate): high polyreactivity

Sequence: QVQLVESGGGLVQEGGSLRLSCAASGITFKTYAMGWYRQAPGKESELVATINRGSRTNYADPVKGRFTISRDNAKNTVYLQMNSLKPEDTAVYYCAAHYTTFIPSPDGDYLGQGTQVTVSS
- polyreactivity (PSR sort gate): low polyreactivity

Sequence: QVQLVESGGGLVQEGGSLRLSCAASGLIFGENAMGWYRQAPGKERELVAAISRRAGITYYADSVKGRFTISRDNAKNTVYLQMNSLKPVDTAVYYCAARKGAISSPYDYWGQGTQVTVSS
- polyreactivity (PSR sort gate): high polyreactivity

Sequence: QVQLVESGGGLVQEGGSLRLSCAASGLTFAGYAMGWYRQATGKERELVAAITTGGSTYYADSVNGRFTISRDNAKNTVYLQMNSLKPEDTAVYYCAARRVRKALVGYGYWGQGTQVTVSS
- polyreactivity (PSR sort gate): high polyreactivity

Sequence: QVQLVESGGGLVQEGGSLRLSCAASGLTFFPYAMGWYRQAPGKERELVAAITTSDGTTYYADSVKGRFTISRDNAKNTVYLQMNSLKPEDTAVYYCAAVYSPRSVWWYDYWGQGTEVTVSS
- polyreactivity (PSR sort gate): low polyreactivity

Sequence: QVQLVESGGGLVQEGGSLRLSCAASGLTFSPYAMGWYRQAPGKERELVATITIGGSTKYADSVKGRFTISRDNAKNTVYLQMNSLKPEDTAVYYCAVRSGYVTRRYDYWGQGTQVTVSS
- polyreactivity (PSR sort gate): low polyreactivity

Sequence: QVQLVESGGGLVQEGGSLRLSCAASGRIFDVYVMGWYRQAPGKERELVDAISQSGGRTYYADSVKGRFTISRDNAKNTVYLQMNSLKPEDTAVYYCNTVTSLATNFSGFGYWGQGTQVTVSS
- polyreactivity (PSR sort gate): high polyreactivity

Sequence: QVQLVESGGGLVQEGGSLRLSCAASGRIFGTNAMGWYRQAPGKERELVAAISRSGGSTYYADSVKGRFTISRDNAKNTVYLQMNSLKPEDTAVYYCATDGRHTYYYWGQGTQVTVSS
- polyreactivity (PSR sort gate): high polyreactivity

Sequence: QVQLVESGGGLVQEGGSLRLSCAASGRIFKPYVMGWYRQAPGKERELVAAISWSGGASTYYADSVKGRFTISRENAKNTVYLQMNSLKPEDTAVYYCNAAKRNRYDYWGQGTQVTVSS
- polyreactivity (PSR sort gate): low polyreactivity

Sequence: QVQLVESGGGLVQEGGSLRLSCAASGRIFPKYAMGWYRQAPAKERELVAAISQRGGSTYYADSVKGRFTISRDNAKNTVYLQMNSLKPEDTAVYYCAASYYRQSCEYDYWGQGTQVTVSS
- polyreactivity (PSR sort gate): low polyreactivity

Sequence: QVQLVESGGGLVQEGGSLRLSCAASGRISVRYGMGWYRQAPGKERELVATISQSGGSTYYADSVKGRFTISRDNAKNTVYLQMNSLKPEDTAVYYCAAETDYVRHARKYDFWGQGTQVTVAS
- polyreactivity (PSR sort gate): low polyreactivity
